B1: 抗-EphA2抗体3F2 (antibody, V domains shown)
VH: EVQLVESGGGVVRPGGSLRLSCAASGFTVSDYSMNWVRQAPGKGLEWIGFIRNKANAYTTEYSASVKGRFTISRDDSKNTLYLQMNSLKTEDTAVYYCTTYPRYHAMDSWGQGTMVTVSS
VL: AIQLTQSPSSLSASVGDRVTITCRASQSISNNLHWYLQKPGQSPQLLIYYGFQSISGVPSRFSGSGSGTDFTLTISSLQPEDFATYYCQQANSWPLTFGGGTKLEIK
B2: 抗-EphA2抗体1H3 (antibody, V domains shown)
VH: EVQLLESGGGLVQPGGSLRLSCAASGFTFSMYAMRWVRQAPGKGLEWVSVIGPSGGWTPYADSVKGRFTISRDNSKNTLYLQMNSLRAEDTAVYYCARDRGIYGMDVWGQGTTVTVSS
VL: DIQMTQSPSFLSASVGDRVTITCRASQGISSYLAWYQQKPGKAPKLLIYAASTLQSGVPSRFSGSGSGTEFTLTISSLQPEDFATYYCLELNNYPFTFGLGTKVHIK

How the values were obtained:
[1] = target: T1, 人EphA2 (expressed on cells) (human, UniProt P29317 24-976); experiment: flow cytometry on cell lines, 1 μg antibody, PE goat anti-human IgG
T1 construct: whole, on cells; also called human EphA2; EphA2 on PC3, HUVEC and other human cell lines
T1 sequence (P29317 24-976): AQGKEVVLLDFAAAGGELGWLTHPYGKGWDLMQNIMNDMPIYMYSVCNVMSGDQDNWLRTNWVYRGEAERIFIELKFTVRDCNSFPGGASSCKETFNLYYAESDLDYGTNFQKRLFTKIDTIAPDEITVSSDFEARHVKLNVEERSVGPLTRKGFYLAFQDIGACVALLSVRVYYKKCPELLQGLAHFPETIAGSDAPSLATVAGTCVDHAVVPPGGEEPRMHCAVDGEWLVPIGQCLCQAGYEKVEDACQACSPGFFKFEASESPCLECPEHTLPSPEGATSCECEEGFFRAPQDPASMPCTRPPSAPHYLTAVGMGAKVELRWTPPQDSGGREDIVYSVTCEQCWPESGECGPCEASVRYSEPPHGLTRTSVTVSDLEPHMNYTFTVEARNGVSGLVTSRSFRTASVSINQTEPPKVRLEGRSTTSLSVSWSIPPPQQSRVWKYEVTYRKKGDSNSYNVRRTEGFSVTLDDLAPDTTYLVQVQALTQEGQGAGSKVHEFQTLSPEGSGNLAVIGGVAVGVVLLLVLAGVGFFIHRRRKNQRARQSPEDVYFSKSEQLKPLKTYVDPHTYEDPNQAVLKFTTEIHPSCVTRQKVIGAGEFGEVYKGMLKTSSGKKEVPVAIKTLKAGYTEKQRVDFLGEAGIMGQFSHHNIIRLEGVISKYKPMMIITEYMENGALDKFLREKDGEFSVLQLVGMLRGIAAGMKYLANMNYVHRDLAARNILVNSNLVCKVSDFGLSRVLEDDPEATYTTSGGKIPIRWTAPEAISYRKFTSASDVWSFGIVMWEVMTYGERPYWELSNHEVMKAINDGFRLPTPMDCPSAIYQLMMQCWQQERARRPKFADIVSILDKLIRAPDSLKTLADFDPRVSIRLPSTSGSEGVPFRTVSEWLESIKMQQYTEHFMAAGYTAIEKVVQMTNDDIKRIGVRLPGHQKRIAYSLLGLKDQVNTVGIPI

[2] = target: T2, 小鼠EphA2 (expressed on cells) (mouse, UniProt Q03145 26-977); experiment: as above
T2 construct: whole, on cells; also called mouse EphA2; EphA2 on CT26, 4T1
T2 sequence (Q03145 26-977): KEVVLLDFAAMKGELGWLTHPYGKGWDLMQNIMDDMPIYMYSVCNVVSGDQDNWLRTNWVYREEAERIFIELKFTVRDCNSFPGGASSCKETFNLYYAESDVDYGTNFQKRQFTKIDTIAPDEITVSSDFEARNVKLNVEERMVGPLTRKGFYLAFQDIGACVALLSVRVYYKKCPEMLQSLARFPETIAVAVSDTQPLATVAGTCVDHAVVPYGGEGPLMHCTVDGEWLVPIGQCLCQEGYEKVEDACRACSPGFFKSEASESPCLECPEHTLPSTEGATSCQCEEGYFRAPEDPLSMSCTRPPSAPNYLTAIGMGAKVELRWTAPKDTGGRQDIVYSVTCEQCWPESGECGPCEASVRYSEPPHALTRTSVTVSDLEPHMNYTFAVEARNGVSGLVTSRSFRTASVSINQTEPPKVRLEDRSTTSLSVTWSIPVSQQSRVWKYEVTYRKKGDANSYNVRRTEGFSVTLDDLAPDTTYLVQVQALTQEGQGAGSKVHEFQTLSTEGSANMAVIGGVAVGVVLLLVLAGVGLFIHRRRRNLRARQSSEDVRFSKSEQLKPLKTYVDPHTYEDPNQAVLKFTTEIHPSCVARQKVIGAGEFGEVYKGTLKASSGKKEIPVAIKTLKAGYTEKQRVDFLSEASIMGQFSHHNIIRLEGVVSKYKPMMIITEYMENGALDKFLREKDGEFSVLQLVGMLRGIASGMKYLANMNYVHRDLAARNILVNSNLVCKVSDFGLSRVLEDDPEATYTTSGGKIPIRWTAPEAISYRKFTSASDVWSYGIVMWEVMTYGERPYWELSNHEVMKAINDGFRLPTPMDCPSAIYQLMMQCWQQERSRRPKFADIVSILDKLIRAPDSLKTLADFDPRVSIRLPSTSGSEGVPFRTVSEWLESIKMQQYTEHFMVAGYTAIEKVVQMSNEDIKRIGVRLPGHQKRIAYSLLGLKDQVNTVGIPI

Binder	binding result [1]	binding result [2]
B1	binds	binds
B2	binds	binds

From CN101309933A (MEDIMMUNE LLC, dated 2008)
